Source: PMC10620216

Molecular target: anti-StrepTagII pentameric IgM with J-chain
Assay: mass photometry; Refeyn OneMP, in PBS, measurement concentrations typically around 5–20 nM, recorded for 120 s; oligomeric state of the antibody in solution

- percent (m/m) of IgM in pentameric configuration: 85 % (m/m)
- stoichiometry N: 5
B1: anti-StrepTagII pentameric IgM with J-chain (antibody, V domains shown)
VH: EVQLEQSGPELVKPGASVKMSCKASGYTFTNYYMKWVKQSHGKSLEWIGDLNPNNGDTFYNQKFKGKATLTVDKSSNTAYMQLNSLTSEDSAVYYCARTGRYEENAMDYWGQGTSVTVSS
VL: ELVMTQSPASLAVSLGQRATISCRASESVDSYGKSFMHWYQLKPGQPPKLLIYRASNLESGVPARFSGSGSRTDFTLTIDPVEADDAATYYCQQNNEDPWTFGGGTKLEIK
